Test results reported in patent publication US20260356940 (published 2026).

T1: SLAMF6 (human, UniProt Q96DU3)
T1 chain: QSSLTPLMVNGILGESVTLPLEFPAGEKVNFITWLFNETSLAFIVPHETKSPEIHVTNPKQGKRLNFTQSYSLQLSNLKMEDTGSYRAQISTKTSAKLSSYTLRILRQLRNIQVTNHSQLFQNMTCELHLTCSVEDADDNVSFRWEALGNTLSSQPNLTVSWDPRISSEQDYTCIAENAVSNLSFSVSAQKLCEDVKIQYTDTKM


Target: T1, SLAMF6
Experiment: SPR

Kd [nM] | Binder
4.1 | LB-20H10 (antibody, V domains shown) VH: QVQLQQSGAELVRPGTSVKMSCKAAGYTFTNYWIGWVKQRPGHGLEWIGDIYPGGGYTHHNEKFKGKATLTADTSSSTAYMQLSSLTSEDSAIYYCARSVLPGFAYWGQGTLVTVSA VL: DIVMTQSHKFMSTSVGDRVSITCKASQDVNTAVAWCQQKPGQSPKLLIYSASYRFTGVPDRFTGSGSGTDFTFTISSVQAEDLAVYFCQQHYSTPYTFGGGTKLEIK
0.38 | LB-031 (antibody, V domains shown) VH: EVQLLESGGGLVQPGGSLRLSCAASGFTFGSYYMGWVRQAPGKGLEWVSYISGYSGYTYYADSVKGRFTISRDNSKNTLYLQMNSLRAEDTAVYYCARFSSPAGYPRMDYWGQGTLVTVSS VL: DIQMTQSPSSLSASVGDHVTITCRASQSISSYLNWYQQKPGKAPKLLIYAASSLQSGVPSRFSGSGSGTDFTLTISSLQPEDFATYYCQQYYTLPTFGQGTKLEIK
6 | LB-116 (antibody, V domains shown) VH: EVQLLESGGGLVQPGGSLRLSCAASGFTFSYSYMYWVRQAPGKGLEWVSSISSSGGSTSYADSVKGRFTISRDNSKNTLYLQMNSLRAEDTAVYYCARPNVDSYMDYWGQGTLVTVSS VL: DIQMTQSPSSLSASVGDHVTITCRASQSISSYLNWYQQKPGKAPKLLIYAASSLQSGVPSRFSGSGSGTDFTLTISSLQPEDFATYYCQQSYIYLPFTFGQGTKLEIK
16 | LB-302 (antibody, V domains shown) VH: EVQLLESGGGLVQPGGSLRLSCAASGFTFGGYGMSWVRQAPGKGLEWVSYIGYGGSYTYYADSVKGRFTISRDNSKNTLYLQMNSLRAEDTAVYYCARDGAGSYGFFDYWGQGTLVTVSS VL: DIQMTQSPSSLSASVGDHVTITCRASQSISSYLNWYQQKPGKAPKLLIYAASSLQSGVPSRFSGSGSGTDFTLTISSLQPEDFATYYCQQFYTNPLLTFGQGTKLEIK
12 | LB-032 (antibody, V domains shown) VH: EVQLLESGGGLVQPGGSLRLSCAASGFTFGSYGMSWVRQAPGKGLEWVSYISYSGSYTYYADSVKGRFTISRDNSKNTLYLQMNSLRAEDTAVYYCARGADYYSVLDYWGQGTLVTVSS VL: DIQMTQSPSSLSASVGDHVTITCRASQSISSYLNWYQQKPGKAPKLLIYAASSLQSGVPSRFSGSGSGTDFTLTISSLQPEDFATYYCQQFSTSPPSTFGQGTKLEIK
